Laboratory results taken from patent US20040175796A1 (SOLVAY PHARMACEUTICALS B V, published 2004).
No end group written: not given here.

Experiments:
[1] = target: T1, IGS4B (IGS4BPROT), human G-protein coupled receptor IGS4, polymorphic form B (human, UniProt Q9GZQ4 4-415); assay: cell-based or functional assay
T1 chain: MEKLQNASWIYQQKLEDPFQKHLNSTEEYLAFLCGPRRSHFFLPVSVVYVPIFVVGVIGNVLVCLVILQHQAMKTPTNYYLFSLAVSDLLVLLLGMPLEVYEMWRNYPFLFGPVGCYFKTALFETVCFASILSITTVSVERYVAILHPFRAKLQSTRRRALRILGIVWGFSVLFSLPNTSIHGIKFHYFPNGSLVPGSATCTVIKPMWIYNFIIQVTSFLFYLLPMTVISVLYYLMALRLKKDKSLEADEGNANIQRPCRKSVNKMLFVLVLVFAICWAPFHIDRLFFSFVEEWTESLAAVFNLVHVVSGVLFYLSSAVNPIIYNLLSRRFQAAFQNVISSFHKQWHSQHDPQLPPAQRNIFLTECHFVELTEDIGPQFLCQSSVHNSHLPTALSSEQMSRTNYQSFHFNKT

[2] = target: IGS4A (IGS4APROT), human G-protein coupled receptor IGS4, polymorphic form A (human, UniProt Q9GZQ4 4-415); assay: cell-based or functional assay

B1: rat Neuromedin U-23 (peptide, UniProt P12760 144-166, looked up)
peptide: YKVNEYQGPVAPSGGFFLFRPRN-NH2
[1]
  EC50, calcium mobilisation (FLIPR): 0.05 nM
  LogEC50, calcium mobilisation (FLIPR): -10.6 log M
[2]
  EC50, calcium mobilisation (FLIPR): 53 nM
  log EC50, calcium mobilisation (FLIPR): -7.27 log M
